Data on 39 molecules can be found in patent US20060008846A1 (RESEARCH DEVELOPMENT FOUNDATION, published 2006).

The labels stand for the following.
T1: ALK4 (activin type I receptor) (UniProt P36896)
T1 sequence (looked up): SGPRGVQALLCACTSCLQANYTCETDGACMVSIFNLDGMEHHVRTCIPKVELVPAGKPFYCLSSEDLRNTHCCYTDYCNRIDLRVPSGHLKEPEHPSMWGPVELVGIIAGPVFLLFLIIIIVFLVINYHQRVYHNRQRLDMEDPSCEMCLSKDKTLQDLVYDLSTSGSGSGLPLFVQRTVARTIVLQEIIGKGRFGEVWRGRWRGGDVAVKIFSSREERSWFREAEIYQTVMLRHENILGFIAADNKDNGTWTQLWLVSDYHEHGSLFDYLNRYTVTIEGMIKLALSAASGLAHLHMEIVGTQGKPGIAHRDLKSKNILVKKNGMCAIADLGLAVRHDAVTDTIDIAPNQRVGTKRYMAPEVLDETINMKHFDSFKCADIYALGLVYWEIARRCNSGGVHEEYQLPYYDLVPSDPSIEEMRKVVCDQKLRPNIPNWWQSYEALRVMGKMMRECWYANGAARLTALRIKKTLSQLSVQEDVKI

T2: ALK4 (activin type I receptor) (UniProt P36896 24-505, limits assumed)
T2 sequence (looked up): T1 sequence (looked up)

B1: activin-A S57A (ligand, human, UniProt P08476 311-426, looked up)
chain: GLECDGKVNICCKKQFFVSFKDIGWNDWIIAPSGYHANYCEGECPSHIAGTSGSSLAFHSTVINHYRMRGHSPFANLKSCCVPTKLRPMSMLYYDDGQNIIKKDIQNMIVEECGCS
B2: activin-A S52A/G53A/S54A (ligand, human, UniProt P08476 311-426, looked up)
chain: B1 chain with S52A, G53A, S54A, A57S
B3: activin-A G50A/T51A (ligand, human, UniProt P08476 311-426, looked up)
chain: B1 chain with G50A, T51A, A57S
B4: activin-A F58A/H59A (ligand, human, UniProt P08476 311-426, looked up)
chain: B1 chain with A57S, F58A, H59A
B5: A/C-2.2 chimeric activin A/activin C protein (ligand, human, UniProt P08476 311-426, looked up)
chain: B1 chain with A57S, I63L, H65L, Y66L, R67K
B6: activin-A W25A (ligand, human, UniProt P08476 311-426, looked up)
chain: B1 chain with W25A, A57S
B7: activin-A P45A/S46A/H47A/I48A (ligand, human, UniProt P08476 311-426, looked up)
chain: B1 chain with P45A, S46A, H47A, I48A, A57S
B8: activin-A T61P (ligand, human, UniProt P08476 311-426, looked up)
chain: B1 chain with A57S, T61P
B9: activin-A S55A/L56A (ligand, human, UniProt P08476 311-426, looked up)
chain: B1 chain with S55A, L56A, A57S
B10: activin-A H65A/M68A (ligand, human, UniProt P08476 311-426, looked up)
chain: B1 chain with A57S, H65A, M68A
B11: activin-A V62A/I63A (ligand, human, UniProt P08476 311-426, looked up)
chain: B1 chain with A57S, V62A, I63A
B12: activin-A M91A (ligand, human, UniProt P08476 311-426, looked up)
chain: B1 chain with A57S, M91A
B13: activin-A I105A (ligand, human, UniProt P08476 311-426, looked up)
chain: B1 chain with A57S, I105A
B14: activin-A N76A/L77A/K78A/S79A (ligand, human, UniProt P08476 311-426, looked up)
chain: B1 chain with A57S, N76A, L77A, K78A, S79A
B15: A/C-1 chimeric activin A/activin C protein (ligand, human, UniProt P08476 311-426, looked up)
chain: B1 chain with S46L, T51M, S52P, S54I, S55A, L56A, A57S
B16: activin-A A31Q (ligand, human, UniProt P08476 311-426, looked up)
chain: B1 chain with A31Q, A57S
B17: activin-A A49G (ligand, human, UniProt P08476 311-426, looked up)
chain: B1 chain with A49G, A57S
B18: activin-A Y35A (ligand, human, UniProt P08476 311-426, looked up)
chain: B1 chain with Y35A, A57S
B19: activin-A S57P (ligand, human, UniProt P08476 311-426, looked up)
chain: B1 chain with A57P
B20: activin-A V62P (ligand, human, UniProt P08476 311-426, looked up)
chain: B1 chain with A57S, V62P
B21: A/C-2.4 chimeric activin A/activin C protein (ligand, human, UniProt P08476 311-426, looked up)
chain: B1 chain with A57S, M68A, R69N, G70T, H71A, S72A
B22: activin-A S90A (ligand, human, UniProt P08476 311-426, looked up)
chain: B1 chain with A57S, S90A
B23: A/C-2.3 chimeric activin A/activin C protein (ligand, human, UniProt P08476 311-426, looked up)
chain: B1 chain with A57S, Y66L, R67K, M68A, R69N, G70T
B24: activin-A L92A (ligand, human, UniProt P08476 311-426, looked up)
chain: B1 chain with A57S, L92A
B25: A/C-2.1 chimeric activin A/activin C protein (ligand, human, UniProt P08476 311-426, looked up)
chain: B1 chain with A57S, S60T, T61A, I63L
B26: activin-A S60A/T61A (ligand, human, UniProt P08476 311-426, looked up)
chain: B1 chain with A57S, S60A, T61A
B27: activin-A R69A/G70A/H71A (ligand, human, UniProt P08476 311-426, looked up)
chain: B1 chain with A57S, R69A, G70A, H71A
B28: activin-A H59P (ligand, human, UniProt P08476 311-426, looked up)
chain: B1 chain with A57S, H59P
B29: A/C-2 chimeric activin A/activin C protein (ligand, human, UniProt P08476 311-426, looked up)
chain: GLECDGKVNICCKKQFFVSFKDIGWNDWIIAPSGYHANYCEGECPSHIAGTSGSSLSFHTAVLNLLKANTAAPFANLKSCCVPTKLRPMSMLYYDDGQNIIKKDIQNMIVEECGCS
B30: activin-A M108E (ligand, human, UniProt P08476 311-426, looked up)
chain: B1 chain with A57S, M108E
B31: activin-A I63P (ligand, human, UniProt P08476 311-426, looked up)
chain: B1 chain with A57S, I63P
B32: activin-A M91E (ligand, human, UniProt P08476 311-426, looked up)
chain: B1 chain with A57S, M91E
B33: activin-A I105E (ligand, human, UniProt P08476 311-426, looked up)
chain: B1 chain with A57S, I105E
B34: activin-A S60P (ligand, human, UniProt P08476 311-426, looked up)
chain: B1 chain with A57S, S60P
B35: activin-A/C chimera A/C 46-78 (ligand, UniProt P08476 311-355, looked up)
chain: GLECDGKVNICCKKQFFVSFKDIGWNDWIIAPSGYHANYCEGECPLHIAGMPGIAASFHTAVLNLLKANTAAGTTGGGSCCVPTKLRPMSMLYYDDGQNIIKKDIQNMIVEECGCS
notes: range 1-45 of the mature chain;range 46-78 of the mature chain;range 79 to C-terminus of the mature chain; also called A/C 46-78 chimera
B36: activin-A/C chimera A/C 46-53 (ligand, UniProt P08476 311-355, looked up)
chain: B1 chain with S46L, T51M, S52P, A57S
notes: range 1-45 of the mature chain;range 46-53 of the mature chain;range 54 to C-terminus of the mature chain
B37: activin-A/C chimera A/C 54-63 (ligand, UniProt P08476 311-363, looked up)
chain: B1 chain with S54I, S55A, L56A, A57S, S60T, T61A, I63L
notes: range 1-53 of the mature chain;range 54-63 of the mature chain;range 64 to C-terminus of the mature chain
B38: activin-A/C chimera A/C 70-78 (ligand, UniProt P08476 311-379, looked up)
chain: B1 chain with A57S, G70T, H71A, S72A, P73G, F74T, A75T, N76G, L77G, K78G
notes: range 1-69 of the mature chain;range 70-78 of the mature chain;range 79 to C-terminus of the mature chain
B39: activin-A/C chimera A/C 64-69 (ligand, UniProt P08476 311-373, looked up)
chain: B1 chain with A57S, H65L, Y66L, R67K, M68A, R69N
notes: range 1-63 of the mature chain;range 64-69 of the mature chain;range 70 to C-terminus of the mature chain

Substitutions are numbered along the chain they refer to. Names may count otherwise.

In one test the target is T1, ALK4 (activin type I receptor). Description: cell-based or functional assay.
B1 showed a % Activin Activity (A3-luciferase assay in 293T cells) (% of wild type activin-A) of 101.
Still for that read-out and setting: then B2, with 99.
For B3, the % Activin Activity (A3-luciferase assay in 293T cells) (% of wild type activin-A) is 83.
The same measure, in the same setting: with B4 the figure was 126.
Still for that read-out and setting: with B5 the figure was 107; with B6, 73; with B7, 91.
Same read-out and setting: with B8 the figure was 78.
Molecule B9 registered a % Activin Activity (A3-luciferase assay in 293T cells) (% of wild type activin-A) of 101.
On the same count and under the same terms, then B10, with 82; and B11, with 83.
B12 came in with a % Activin Activity (A3-luciferase assay in 293T cells) (% of wild type activin-A) of 74.
Same read-out and setting: with B13 the figure was 86; with B14, 82; with B15, 104.
With B16, the % Activin Activity (A3-luciferase assay in 293T cells) (% of wild type activin-A) amounted to 84.
As for B17, the % Activin Activity (A3-luciferase assay in 293T cells) (% of wild type activin-A) came out at 82.
Still for that read-out and setting: with B18 the figure was 101.
Still for that read-out and setting: with B19 the figure was 83; with B20, 64; with B21, 79.
The same measure, in the same setting: with B22 the figure was 59; with B23, 87; with B24, 35.
B25 showed a % Activin Activity (A3-luciferase assay in 293T cells) (% of wild type activin-A) of 81.
Take B26: the % Activin Activity (A3-luciferase assay in 293T cells) (% of wild type activin-A) turned out to be 97.
On the same count and under the same terms, with B27 the figure was 82; with B28, 85.

A further test addresses T2, ALK4 (activin type I receptor). Description: cell-based or functional assay.
Turning to B29, the “% Activin Activity (A3-luciferase assay in 293T cells)” value is 17 % of wild type activin-A.
Same read-out and setting: then B30, with 3 % of wild type activin-A.
In the case of B31, the “% Activin Activity (A3-luciferase assay in 293T cells)” value is 19 % of wild type activin-A.
In the case of B32, the “% Activin Activity (A3-luciferase assay in 293T cells)” value was 3 % of wild type activin-A.
On the same count and under the same terms, with B33 the figure was 13 % of wild type activin-A.
The same measure, in the same setting: then B34, with 17 % of wild type activin-A.

The target of another test is T3, mouse ActRII transfected into 293T cells (mouse, UniProt P27038 20-513).
T3 construct: whole, on cells
T3 sequence (P27038 20-513): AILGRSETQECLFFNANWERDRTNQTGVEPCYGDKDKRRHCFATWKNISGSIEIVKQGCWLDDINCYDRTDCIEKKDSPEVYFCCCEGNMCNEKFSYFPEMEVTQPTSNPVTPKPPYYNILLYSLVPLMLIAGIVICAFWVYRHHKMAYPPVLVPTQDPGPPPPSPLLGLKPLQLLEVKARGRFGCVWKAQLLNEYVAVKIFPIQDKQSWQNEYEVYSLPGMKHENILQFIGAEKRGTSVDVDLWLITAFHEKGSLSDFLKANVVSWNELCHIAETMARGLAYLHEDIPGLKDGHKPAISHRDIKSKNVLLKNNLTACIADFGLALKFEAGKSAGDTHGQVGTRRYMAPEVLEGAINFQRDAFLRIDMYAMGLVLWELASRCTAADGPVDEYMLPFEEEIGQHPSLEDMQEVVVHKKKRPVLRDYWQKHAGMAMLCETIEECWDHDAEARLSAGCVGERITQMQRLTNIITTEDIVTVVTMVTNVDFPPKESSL
Description: ActRII binding, 293T cells transfected with mouse ActRII. Here is the method: After the incubation cells were washed three times with HDB buffer and lysed with 1% SDS solution. Radioactivity in the lysate was determined using a gamma counter.
Therefore, the inventors contemplate engineering a series of activin-A chimeras, such as activin-A/C chimeras, preferably having a peptide tag such a FLAG tag, in each of […] in the wrist loop and helix (such as A/C 46-53, 54-63, 64-69, 70-78) are replaced. Additionally, a chimera was generated in which the entire wrist region (A/C 46-78) was changed from activin-A to activin-C or some other analogous TGF-β member. In one example, the chimeras were assessed for ActRII binding, activin bioactivity as well as antagonistic properties. […] Maximum activity of A/C 64-69 and 70-78, however, was reduced down to about 20-50% and 60-90%, respectively, when compared to wt activin. […] Additionally, A/C 46-78 decreased the basal and activin induced FSH release from cultured rat anterior pituitary cells in a concentration dependent manner. […] The activin antagonist A/C 46-78 may be useful for the study and modulation of activin dependent processes.
With B35, the binding result is listed as “binds”.
On the same count and under the same terms, then B36, with “binds”; and B37, with “binds”; and B38, with “binds”.
As to B39, the binding result is “binds”.
